Test results taken from IntAct's records for PubMed 29178645.

B1: Protein SHQ1 homolog (Homo sapiens), Q6PI26 (parent)
chain: MLTPAFDLSQDPDFLTIAIRVPYARVSEFDVYFEGSDFKFYAKPYFLRLTLPGRIVENGSEQGSYDADKGIFTIRLPKETPGQHFEGLNMLTALLAPRKSRTAKPLVEEIGASEIPEEVVDDEEFDWEIEQTPCEEVSESALNPQCHYGFGNLRSGVLQRLQDELSDVIDIKDPDFTPAAERRQKRLAAELAKFDPDHYLADFFEDEAIEQILKYNPWWTDKYSKMMAFLEKSQEQENHATLVSFSEEEKYQLRKFVNKSYLLDKRACRQVCYSLIDILLAYCYETRVTEGEKNVESAWNIRKLSPTLCWFETWTNVHDIMVSFGRRVLCYPLYRHFKLVMKAYRDTIKILQLGKSAVLKCLLDIHKIFQENDPAYILNDLYISDYCVWIQKVKSKKLAALAEALKEVSLTKAQLGLELEELEAAALLVQEEETALKAAHSVSGQQTLCSSSEASDSEDSDSSVSSGNEDSGSDSEQDELKDSPSETVSSLQGPFLEESSAFLIVDGGVRRNTAIQESDASQGKPLASSWPLGVSGPLIEELGEQLKTTVQVSEPKGTTAVNRSNIQERDGCQTPNN
partner: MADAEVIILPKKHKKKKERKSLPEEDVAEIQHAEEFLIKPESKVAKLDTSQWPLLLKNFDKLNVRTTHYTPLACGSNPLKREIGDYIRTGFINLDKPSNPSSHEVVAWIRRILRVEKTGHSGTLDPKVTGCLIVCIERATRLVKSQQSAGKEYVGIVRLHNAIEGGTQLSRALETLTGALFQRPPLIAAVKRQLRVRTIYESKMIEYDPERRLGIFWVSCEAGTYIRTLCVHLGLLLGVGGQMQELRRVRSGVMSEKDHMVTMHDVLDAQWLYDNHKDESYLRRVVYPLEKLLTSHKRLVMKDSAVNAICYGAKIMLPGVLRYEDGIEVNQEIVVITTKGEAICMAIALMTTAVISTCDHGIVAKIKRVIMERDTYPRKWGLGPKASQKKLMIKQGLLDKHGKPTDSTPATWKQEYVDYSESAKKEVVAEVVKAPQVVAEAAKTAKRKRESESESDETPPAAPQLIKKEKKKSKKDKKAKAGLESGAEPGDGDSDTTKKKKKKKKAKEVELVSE

Variants of: B1
Details: with dkc1_human DKC1, O60832

Effect of a mutation on the interaction, decreasing interaction strength:
MLTPAFDLSQDPDFLTIAIRVPYARVSEFDVYFEGSDFKFYAKPYFLRLTLPGRIVENGSEQGSYDADKGIFTIRLPKETPGQHFEGLNMLTALLAPRKSRTAKPLVEEIGASEIPEEVVDDEEFDWEIEQTPCEEVSESALNPQCHYGFGNLRSGVLQRLQDELSDVIDIKDPDFTPAAERRQKRLAAELAKFDPDHYLADFFEDEAIEQILKYNPWWTDKYSKMMAFLEKSQEQENHATLVSFSEEEKYQLRKFVNKSYLLDKRACRQVCYSLIDILLAYCYETRVTEGEKNVESAWNIRKLSPTLCWFETWTNVHDIMVSFGRRVLCYPLYCHFKLVMKAYRDTIKILQLGKSAVLKCLLDIHKIFQENDPAYILNDLYISDYCVWIQKVKSKKLAALAEALKEVSLTKAQLGLELEELEAAVLLVQEEETALKAAHSVSGQQTLCSSSEASDSEDSDSSVSSGNEDSGSDSEQDELKDSPSETVSSLQGPFLEESSAFLIVDGGVRRNTAIQESDASQGKPLASSWPLGVSGPLIEELGEQLKTTVQVSEPKGTTAVNRSNIQERDGCQTPNN [R335C;A426V]
MLTPAFDLSQDPDFLTIAIRVPYARVSEFDVYFEGSDFKFYAKPYFLRLTLPGRIVENGSEQGSYDADKGIFTIRLPKETPGQHFEGLNMLTALLAPRKSRTAKPLVEEIGASEIPEEVVDDEEFDWEIEQTPCEEVSESALNPQCHYGFGNLRSGVLQRLQDELSDVIDIKDPDFTPAAERRQKRLAAELAKFDPDHYLADFFEDEAIEQILKYNPWWTDKYSKMMAFLEKSQEQENHATLVSFSEEEKYQLRKFVNKSYLLDKRACRQVCYSLIDILLAYCYETRVTEGEKNVESAWNIRKLSPTLCWFETWTNVHDIMVSFGRRVLCYPLYCHFKLVMKAYRDTIKILQLGKSAVLKCLLDIHKIFQENDPAYILNDLYISDYCVWIQKVKSKKLAALAEALKEVSLTKAQLGLELEELEAAALLVQEEETALKAAHSVSGQQTLCSSSEASDSEDSDSSVSSGNEDSGSDSEQDELKDSPSETVSSLQGPFLEESSAFLIVDGGVRRNTAIQESDASQGKPLASSWPLGVSGPLIEELGEQLKTTVQVSEPKGTTAVNRSNIQERDGCQTPNN [R335C]
MLTPAFDLSQDPDFLTIAIRVPYARVSEFDVYFEGSDFKFYAKPYFLRLTLPGRIVENGSEQGSYDADKGIFTIRLPKETPGQHFEGLNMLTALLAPRKSRTAKPLVEEIGASEIPEEVVDDEEFDWEIEQTPCEEVSESALNPQCHYGFGNLRSGVLQRLQDELSDVIDIKDPDFTPAAERRQKRLAAELAKFDPDHYLADFFEDEAIEQILKYNPWWTDKYSKMMAFLEKSQEQENHATLVSFSEEEKYQLRKFVNKSYLLDKRACRQVCYSLIDILLAYCYETRVTEGEKNVESAWNIRKLSPTLCWFETWTNVHDIMVSFGRRVLCYPLYRHFKLVMKAYRDTIKILQLGKSAVLKCLLDIHKIFQENDPAYILNDLYISDYCVWIQKVKSKKLAALAEALKEVSLTKAQLGLELEELEAAVLLVQEEETALKAAHSVSGQQTLCSSSEASDSEDSDSSVSSGNEDSGSDSEQDELKDSPSETVSSLQGPFLEESSAFLIVDGGVRRNTAIQESDASQGKPLASSWPLGVSGPLIEELGEQLKTTVQVSEPKGTTAVNRSNIQERDGCQTPNN [A426V]
